This is an account of results in article PMC10491678.

For the assay, the target named is N-terminus His-tag cleaved rBPSL1038 (rBPSL1038-post-cleavage) (Burkholderia pseudomallei) (UniProt Q63W52). The assay can be described thus: SEC.

Usually stoichiometry N stands for a count of units in the complex or per binding partner.

“N-terminus His-tag cleaved rBPSL1038 (rBPSL1038-post-cleavage) (from UniProt Q63W52 1-88) (natural protein)” showed a stoichiometry N of 2.
